± gives the uncertainty stated by the source.

The nature of this series: amyloid nucleation score (Sup35N fusion, yeast selection) (log enrichment); library NNK1; higher = more nucleation; inactive = no reads after selection. An outline of the steps:
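DiMSum was used to calculate nucleation scores as log enrichment of output over input reads, centred on the mode score of non-aggregating sequences. Sequences with fewer than 100 input reads were not scored. Input and output came from Illumina sequencing of plasmid inserts in psi-negative yeast expressing peptides of 20 random codons fused to Sup35N, induced 24 hours with 100 μM copper sulfate and then grown 7 days at 30°C on medium lacking adenine and uracil.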
Substance YGFKSRDKPFNL showed an amyloid nucleation score of 0.008 ± 0.44.
LMNFSNWDELR returned an amyloid nucleation score of -1.26 ± 2.4.
The same measure for KLLHLVIVDELCFVRYSGLA: 0.381 ± 0.81; for CWYLYRFSNTMMNRTTLPCG: -0.169 ± 0.53.
The figure for VYPCACVFYSLGVGLQNEET is 6.27 ± 0.089; for CLTGIGKLPVGSGPV it is 0.198 ± 0.77.
The figure for FEDEPGVSFWNSGGFK is -1.07 ± 0.62.
As to ARHSYN, the amyloid nucleation score entry is “inactive”.
The same measure for ASVVQVTGRGSVGMVFPCCS: -0.558 ± 0.56; for FECCAVLLYMGRVNACRVCC: -0.281 ± 0.44.
The same measure for LPCYSSLQSLGQRMQVKG: 0.025 ± 0.31; for GERGQFTILISYMALRDRLM: 2.45 ± 0.13; for WYSTFGAMKKLGTYPCSGVN: -0.46 ± 1.
The same measure for WWVYRARFNCCHLYKVYLHC: 0.221 ± 0.88; for MTCDVSKMCVSLRVVTSNGG: 1.27 ± 0.31; for TGEPKRS: 1.58 ± 0.49.
On to FVRSFYSDKLWQIFGWVVGS, for which the amyloid nucleation score was -0.753 ± 0.51.
The figure for IRTKILLLHKNQKTVVKGLG is 0.073 ± 1.5; for LGEMGRVSYLYVCLHWALLS it is 0.119 ± 0.44.
The figure for SYYMYLN is -0.19 ± 0.26; for KFACLRWVICKYCLWV it is -0.412 ± 0.49; for CYAGFCNQRLPHYLLKLQVL it is -0.42 ± 1.7.
Substance CLTMWIV yielded an amyloid nucleation score of -0.285 ± 0.68.
The figure for CVGRQLAGKAYLVLRWRECD is -0.372 ± 1.4; for NWVGGYTEIALLA it is -0.344 ± 0.78.
The figure for YWTALTFSHY is 0.486 ± 0.82.
The entry for PWSRDARPSADW is “inactive”; for RYTIDLMSFNIKFWSHTLLH it is -0.869 ± 1.5; for CESGW it is -0.115 ± 1.2.
As for FLWDNAVSKVKFITFVWPHI, the amyloid nucleation score stood at 0.86 ± 0.32.
DWRLNLVYKMSA gave an amyloid nucleation score of 0.734 ± 0.75.
The figure for SFKWLGTFRYSYTKSTEHVW is -0.534 ± 1.2.
The figure for ILVLYSVRWIEATR is -0.224 ± 0.35.
The same measure for FLLGSYILWECNHGSHHMSG: 0.06 ± 0.23.
The substance KFVVMGWGYLTIRVVSVTDK yielded an amyloid nucleation score of 1.92 ± 0.64.
Substance CRSFYIIEIVKMGPNGRKGV gave an amyloid nucleation score of -1 ± 0.78.
MPAWFILGDVVL gave an amyloid nucleation score of 1.2 ± 0.35.
The figure for YEGGM is -0.334 ± 0.73; for YCCGDTPTFCSLKFIMS it is 7.059 ± 0.047; for GRDLPYMTRRNTLWSSKVVF it is 0.206 ± 0.35.
For the substance CCFMYAQIDLLNFSMDVLAR, the amyloid nucleation score was determined as 0.198 ± 0.29.
As for DNWSMGYPEETGAWGVN, the amyloid nucleation score worked out at 0.406 ± 0.45.
The figure for TIFVPGALVDFAAGGTHQLI is -0.088 ± 1.3.
The figure for LIVRNRHCLGAPFENFFSAR is 0.671 ± 0.37; for FWPNRLR it is 0.169 ± 0.56; for TVLVT it is -0.461 ± 0.48.
The figure for RLYTFVLPRFILLEKRHSTN is 0.255 ± 0.32; for TQMMDALFLSAL it is 0.935 ± 0.79; for QVLQNCRGTFDDRILLFNGI it is -0.288 ± 0.8.
For the substance KLINCLGIVL, the amyloid nucleation score was -0.92 ± 1.1.
The same measure for DYSCARYEPGNMVLLC: -0.813 ± 1.5; for YSFSISVYLLGLSCCCWMGE: 6.08 ± 0.064.
The same measure for RCVSFPIWRFIPEVLVIWLG: -1.04 ± 1.3; for DMNDYSK: -0.592 ± 0.39.
The same measure for SIYKSSEREVVY: “inactive”.
In turn, WWYQCHCSYYHAIGITSVQE returned an amyloid nucleation score of 1.39 ± 0.63.
The figure for TDNMWCSNVIFLECTN is 4.07 ± 0.12; for FFLMISKLAKWKGVARKTAL it is -0.937 ± 2.1; for CNDFCCT it is “inactive”.
The figure for IIILYMLRPAMSGWDVFACC is 0.627 ± 0.18; for FMTFVYTGTSFSR it is 0.523 ± 0.71; for GSRVVQRYVAVHACVHERVT it is 0.589 ± 0.4.
The same measure for ISYRGSFHTNMWTCILRTAK: 0.082 ± 0.42; for LINSFLVLWKPFIFAEGRTR: 7.903 ± 0.066; for RRSQCSVEPGVWHRVRSFLV: 0.35 ± 0.77.
For QDTVFYMTDWGCGATKARDD, the amyloid nucleation score amounted to 0.117 ± 0.94.
MSSVVLANFEGPAHELATGV returned an amyloid nucleation score of -0.072 ± 0.58.
The figure for ACETWVVAIDMVSRSPCRCC is 0.113 ± 0.97; for RLVSRPRSLLQCYWGLVC it is 0.392 ± 1.4; for TVIRSVIIPITPPIIR it is 1.57 ± 0.56.
The entry for LKFKARLRRTLPVQQNRAIG is “inactive”; for TSRGGLFYSGVLICAGGIRM it is -0.032 ± 0.54; for LPSIYSFSSCNVVEDEGQM it is -0.685 ± 1.2.
As to RKRNKYILYYRCNRWFQLYC, the amyloid nucleation score was -0.323 ± 1.6.
As to EYIMYYWIRIVYFVINGYLV, the amyloid nucleation score amounted to 0.534 ± 0.36.
In the case of AHSGMRLL, the amyloid nucleation score amounted to 0.569 ± 0.75.
The figure for AVTCSPPGPMQGLTFLFMAL is -1.11 ± 1; for INDRVDGSVIEMSLCRYG it is 1.19 ± 0.8; for CYCFET it is -0.381 ± 0.71.
The figure for DAQWAYYTRTYFWYVFSAVC is 0.27 ± 0.23; for NVKPSDDNVSLRNYGIRYLE it is -0.29 ± 1.1; for EPCCDVRVKGLYMFEYYVVC it is 0.185 ± 1.1.
As for YNMVFWTKFSLSWLLCLHGK, the amyloid nucleation score came to 5.86 ± 0.088.
The same measure for MYTQGMYQEDSRDGNGW: -0.189 ± 0.25; for ESMLSSIRGLHNG: -0.851 ± 1.7.
The same measure for ENFPPAQ: -0.691 ± 0.5; for GMHLNCHGCILSSV: -0.021 ± 0.77.
The figure for SSSWTTCY is 2.15 ± 0.1.
MSWNYCNDM yielded an amyloid nucleation score of -0.045 ± 0.22.
On to LKTYFGVVSRTLGLCLREEI, for which the amyloid nucleation score came to 0.489 ± 0.43.
The same measure for PRNPMRSESILFCGNFVGRK: -0.759 ± 0.59.
The figure for ILIAIMNFARSEVVTNGHIR is 2.13 ± 0.41; for SMRCKSYGCC it is 0.3 ± 0.59; for GGSYKEYTLCKHTAP it is 0.506 ± 0.67.
Turning to MKLMKPGTLSSWCFFDSSGV, the amyloid nucleation score is 0.016 ± 0.51.
The figure for EGNMNEWTCLSCRSRAEEAR is -0.255 ± 0.9; for NASCFADKPLLCSLTGRVMD it is -0.043 ± 0.49; for VVYHAFDALLNLCRSSYRGH it is -0.811 ± 0.52.
The figure for VRLTSINSLCIVGDTQGST is 0.945 ± 0.73; for EALCSTSEGILHKEWF it is 0.178 ± 0.28; for SDMYIL it is 0.807 ± 0.43.
The figure for LTKISQLKRCDHKMRKSVSN is 0.517 ± 0.26; for RQGLGAVVNENV it is 0.137 ± 0.43.
Consider GKKTRRLYVKWSSSFLNWMK, for which the amyloid nucleation score was 0.28 ± 0.85.

Values taken from the supplement of paper PMC12042874.
